In article PMC9894219:
Like-named read-outs stand apart in the source and are kept apart here.

Key:
[1] = target: T1, Nurr1258 (in Nurr1258-RXRα98 heterodimer);RXRα98 (DBD-hinge-LBD) (human?;human?, UniProt P43354;P19793 258-598;98-462, |); assay: BLI
[2] = target: T1, Nurr1258 (in Nurr1258-RXRα98 …); assay: BLI; remark: listed apart in the source
[3] = target: Nurr1258 (Nurr1 DBD-hinge-LBD) (UniProt P43354 258-598); assay: crystal structure
Chain of Nurr1258 (Nurr1 DBD-hinge-LBD) (P43354 258-598): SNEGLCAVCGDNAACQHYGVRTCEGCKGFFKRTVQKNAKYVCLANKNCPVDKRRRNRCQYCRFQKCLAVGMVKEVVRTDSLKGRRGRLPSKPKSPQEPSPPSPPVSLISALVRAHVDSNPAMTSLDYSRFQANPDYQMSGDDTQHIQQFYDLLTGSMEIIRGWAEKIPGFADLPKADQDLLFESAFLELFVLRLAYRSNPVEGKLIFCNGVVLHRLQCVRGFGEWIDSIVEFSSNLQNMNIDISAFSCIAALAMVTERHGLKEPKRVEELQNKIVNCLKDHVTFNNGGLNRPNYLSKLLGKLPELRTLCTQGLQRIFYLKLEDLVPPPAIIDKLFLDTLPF

T1 sequence (P43354 258-598, chain 1 of 2): as the sequence (P43354 258-598) above
T1 sequence (P19793 98-462, chain 2 of 2): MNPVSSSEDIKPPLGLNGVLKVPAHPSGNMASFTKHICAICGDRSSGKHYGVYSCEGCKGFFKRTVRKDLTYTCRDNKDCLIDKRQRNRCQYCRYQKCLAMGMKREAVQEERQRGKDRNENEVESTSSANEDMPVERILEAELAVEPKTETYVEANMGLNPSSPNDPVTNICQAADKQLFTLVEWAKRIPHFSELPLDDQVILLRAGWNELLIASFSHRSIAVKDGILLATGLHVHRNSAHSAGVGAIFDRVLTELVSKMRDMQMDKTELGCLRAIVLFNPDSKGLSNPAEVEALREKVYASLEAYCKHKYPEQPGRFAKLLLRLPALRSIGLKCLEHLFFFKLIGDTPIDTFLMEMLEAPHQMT

| Binder | Kd [1] | Kd [2] | binding result [3] |
| --- | --- | --- | --- |
| IR5 biotinylated (dsDNA) DNA 1: AAAGGTCAAACTGTGACCTAT DNA 2: ATAGGTCACAGTTTGACCTTT | 864 nM | 62.5 nM |  |
| NBRE (dsDNA) DNA 1: CCGAAAAGGTCATGCG DNA 2: CGCATGACCTTTTCGG |  |  | binds |
